The text below walks through data of PMC7857395 (Science (New York, N.y.), 2020).

This assay addresses SARS-CoV RBD (SARS-CoV (P59594; strain ), UniProt P59594). Nature of the assay: ELISA. The conditions noted are these: both partners purified.

B1: S2M11 human monoclonal antibody (IgG) (antibody, V domains shown)
VH: EVQLVQSGAEVKKPGASVKVSCKASGYTFTGYYMHWVRQAPGQGLEWMGWINPISSGTSYAQTFQGRVTMTSDTSITTAYMELSRLRSDDTAVYYCARAAPFYDFWSGYSYFDYWGQGTLVTVSS
VL: not shown
notes: also called S2M11 IgG; S2M11 mAb; copies: 2 + 2
Consider B1, for which the binding result is “no binding”.

B2: S2E12 human monoclonal antibody (IgG) (antibody, V domains shown)
VH: not shown
VL: DIVLTQTPGTLSLSPGERATLSCRASQSVSSSYLAWYQQKPGQAPRLLIYGASSRATGIPDRFSGSGSGTDFTLTISRLEPEDFAVYYCQQYVGLTGWTFGQGTKVEIK
notes: also called S2E12 IgG; S2E12 mAb; copies: 2 + 2
Turning to B2, the binding result is listed as “no binding”.
